In US8207309B2, “Human synthetic single-chain antibodies directed against the common epitope of mutant P53 and their uses” (Ramot at Tel-Aviv University Ltd., priority 2005, dated 2012):
Entries after “also recorded” stand apart in the source; their conditions may differ. Read-outs that look alike come from different tables or passages of the source.

Experiments:
[1] = target: T1, common epitope of mutant p53 (FRHSVV; SEQ ID NO:1) (Homo sapiens, UniProt P04637); test: BIAcore analysis of scFv binding to immobilized FRHSVV-biotin peptide; conditions: FRHSVV-biotin on streptavidin chip, 1:1 Langmuir model, read-out: affinity (binding constant) towards the common epitope (SEQ ID NO:1)
T1 construct: A biotin conjugate of the peptide (FRHSVV)
Procedure: Binding was determined using the BIACore at the indicated concentrations of antibodies. RU=resonance units. The binding constant was determined using the software that is supplied with the BIAcore instrument (wwwdotBiacoredotcom).
BIAcore Analysis—Real time analysis of the interaction between scFvs and FHRSVV-biotin were determined using BIAcore technology (Biacore AB, Uppsala, Sweden) according to manufacturer's instructions. The peptide FRHSVV-biotin was immobilized on a streptavidin coated sensor chip surface SA. The amount of immobilized peptide was 200 pg/mm^2, the binding was in HBS buffer (10 mM Hepes PH 7.4, 150 mM NaCl, 0.005% Tween-20, 3.4 mM EDTA). Several concentrations of purified scFv (62 nM, 125 nM, 250 nM, 1 μM and 2 μM) were injected at a flow rate of 20 μl/minute. […] Regeneration of the sensor chip was performed using 10 μl of 10 mM HCl. The kinetics parameters of the binding reactions were determined by BIAevaluation 4.0 Software (Biacore AB) using the 1:1 Langmuir model. The dissociation rate (off-rate) constant Kd and the association rate constant (on-rate) Ka were determined simultaneously according to manufacturer's instructions.
The scFv F2 and E6 antibodies display high affinity binding of the mutant epitope—To determine the affinity binding of the isolated scFvs towards the target peptide (SEQ ID NO:1), the BIAcore technology was employed. […]

[2] = tested on: BSA, Streptavidin, amyloid peptide (SEQ ID NO:2), MAP-PrP, PaP; conditions: ELISA, FIG. 9, SEQ ID NOs:2-4
[3] = target: T2, FRHSVV peptide (SEQ ID NO:1; common epitope of mutant p53) (Homo sapiens, UniProt P04637); test: Binding specificity ELISA of scFvs (FIG. 9)
T2 construct: A biotin conjugate of the peptide (FRHSVV)

Molecule	Kd [1]	binding to the other peptides or proteins tested [2]	binding to peptide of the common epitope of mutant p53 (SEQ ID NO:1) [3]	binding to peptide of the common epitope of mutant p53 (SEQ ID NO:1) ([3]; listed as A4)
A6 scFv: human scFv, SEQ ID NO:115; VL CDRs SEQ ID NOs:60-62 (protein, Single chain Fv) scFv: VQLLESGGGLVQPGGSPRLSCAASGFTFSGYWMHWVRQAPGKGLEWVSEISGSGDSTHYGDSVKGRFTISRDNSKNTLYLQMNSLRAEDTAVYYCARGRNGSLDYWGQGTLVTVSSGSAGGGGSGGGGSGGGGSDIVLTQPPSASGTPGQRVTISCTGGRFNIGDYAVNWYQQLPGKAPKLLIYDNDRRPSGVSDRFSGSKSGTSASLAISGLRSEDEADYYCAAWDDSLDGLVFGGGTQLTV	23 nM			
A4 scFv: human scFv clone; VL CDRs SEQ ID NOs:36-38 (protein) scFv: VQLLESGGGLVQPGGSLRLSCAASGFTFSGYWMHWVRQAPGKGLEWVSEISGSGDSTHYGDSVKGRFTISRDNSKNTLYLQMNSLRAEDTAVYYCARGRNGSLDYWGQGTLVTVSSGSAGGGGSGGGGSGGGGSDIVLTQPPSASGTPGQRVTISCTGNSSNIGAGYDVHWYQQLPGKAPKLLIYSNNQRPSGVPDRFSGSKSGTSASLAISGLRSEDEADYYCAAWDDSLSSVVFGGGTKLTV		low affinity	high affinity	highly specific; also recorded: high binding specificity
B6 scFv: human scFv clone; VL CDRs SEQ ID NOs:27-29 (protein) scFv: VQLLESGGGLVQPGGSLRLSCAASGFTFSGYWMHWVRQAPGKGLEWVSEISGSGDSTHYGDSVKGRFTISRDNSKNTLYLQMNSLRAEDTAVYYCARGRNGSLDYWGQGTLVTVSSGSAGGGGSGGGGSGGGGSDIVLTQPPSASGTPGQRVTISCTGSSANIGAGYDVHWYQQLPGKAPKLLIYDNDKRPSGVPDRFSGSKSGTSASLAISGLRSEDEADYYCAAWDDRLSGVVFGGGTKVTV		low affinity		
